This is an account of results in patent US20050009042A1 (AVENTIS PHARMA S A, published 2005).

B1: MYO47-Luc (other)
chain: MAGIKALISLSFGGAIGLMFLMLGCALPIYNKYWPLFVLFFYILSPIPYCIARRLVDDTDAMSNACKELAIFLTTGIVVSAFGLPIVFARAHLIEWGACALVLTGNTVIFATILGFFLVFGSNDDFSWQQW
notes: also called MY047-Rluc; not shown: Renilla luciferase (vector pcDNA3-Rluc)
B2: MYO47-YFP (other)
chain: B1 chain
notes: also called MY047-YFP; not shown: YFP (Topaz, vector pcDNA3-YFP)
B3: OB-RGRP-YFP (other)
chain: MAGVKALVALSFSGAIGLTFLMLGCALEDYGVYWPLFVLIFHAISPIPHFIAKRVTYDSDATSSACRELAYFFTTGIVVSAFGFPVILARVAVIKWGACGLVLAGNAVIFLTIQGFFLIFGRGDDFSWEQW
notes: Expressed in HeLa or HEK cells from pcDNA3-OB-RGRP-YFP; also called OB-RGRP tagged with YFP at its C-terminal tail; OB-RGRP-YFB; not shown: YFP coding region from vector pGFPtpz-N1 (Cytogem-Topaze, Packard)
B4: YFP-OB-RGRP (other)
chain: B3 chain
notes: The construction of this plasmid is not described on its own; only the double fusion YFP-OB-RGRP-Luc is; also called OB-RGRP tagged at the N-terminal with YFP; not shown: YFP (Topaz, from pGFPtpz-N1) at the N-terminus
B5: OB-RGRP-Luc (other)
chain: B3 chain
notes: Expressed in cells from pcDNA3-OB-RGRP-Luc; also called OB-RGRP-Rluc; not shown: Renilla luciferase, coding region from vector pRL-CMV (Promega)
B6: 6Myc-OB-RGRP (4TM) (other)
chain: B3 chain
notes: not shown: The N-terminal 6xMyc tag (the 6myc fragment of pCDNA3-RSV-6Myc) and its junction

For one series, the target named is OB-Rl. In words: cell-based or functional assay.
In series [1] the target is T1, IR-YFP, protein from fusion of the insulin receptor with YFP (UniProt P06213 28-1382).
T1 construct: whole, on cells; Control fusion protein; also called construct of the insulin receptor tagged with YFP; not shown: YFP
Nature of the series: BRET in living cells, equimolar coexpression. As to the method: (§1) 48 h after transfection, the COS-7, HeLa or HEK 293 cells expressing the OB-R fusion proteins were detached and washed in PBS. 1-2×10⁵ cells were distributed into wells of optiplate plates (96-well, Packard Instrument Company, Meriden, Conn.) in the presence or absence of the ligands, and incubated at 25° C. Alternatively, the same procedure was carried out with membranes prepared from the cells expressing the various constructs. The substrate, coelenterazine h (Molecular Probes, Eugene, Oreg.), was added at a final concentration of 5 μmol.L⁻¹ and the readings were carried out with a Fusion™ luminometer/fluorimeter (Packard Instrument Company, Meriden, Conn.), which makes it possible to measure luminescence through two filters (luciferase filter: 485±10 nm; YFP filter: 530±12.5 nm). The BRET ratio was defined as the difference in emission at 530 nm/485 nm of the cells cotransfected with the Luc and YFP fusion proteins and the emission at 530 nm/485 nm of the Luc fusion protein transfected alone into the cells. The results are expressed as milliBRET units (mBU), 1 mBRET corresponding to the values of the differences in the ratios multiplied by 1000.
(§2) We used BRET technology to study a possible interaction between OB-R and OB-RGRP in living cells. An energy transfer was constitutively observed in the cells coexpressing the OB-Rₛ-Luc construct and the OB-RGRP-YFP construct, indicating proximity of the interaction partners (FIG. 7). The same results were obtained in cells coexpressing OB-Rₛ-Luc and the MYO47-YFP construct, and also in the reverse orientation: in cells coexpressing OB-RGRP-Luc and OB-Rₛ-YFP, or in cells coexpressing MYO47-Luc and OB-Rₛ-YFP. The specificity of these interactions was confirmed by the lack of energy transfer between OB-Rₛ-Luc, OB-RGRP-Luc, MYO47-Luc and a construct of the insulin receptor tagged with YFP (Boute et al. (2001) Mol Pharmacol 60, 640-645), and also in the reverse orientation: by the lack of energy transfer between a construct of the insulin receptor tagged with Luc and the OB-Rₛ-YFP, OB-RGRP-YFP and MYO47-YFP construct.
A general note: In BRET a luciferase serves as donor, and the signal depends on an acceptor being close.

For series [2], the target named is T2, construct of the insulin receptor tagged with Luc (UniProt P06213 28-1382).
T2 construct: whole, on cells; Control fusion protein; also called IR-Luc
Nature of the series: BRET in living cells, equimolar coexpression. As to the method:
as §1, §2

Series [3] deals with the molecule itself. In words: SDS-PAGE and anti-YFP immunoblot of HeLa cell lysates, with or without DSP crosslinker; self-association. On the procedure: (§3) Study of the oligomerization of OB-RGRP with SDS-PAGE experiments and immunoprecipitations. FIG. 4a: the cells expressing the fusion proteins indicated were treated or not treated with 2 mmol.L⁻¹ dithiobis(succinimidyl propionate) (DSP) in PBS (1×, pH7.4) in order to crosslink the protein complexes. The proteins were separated by SDS-PAGE and the proteins from fusions with YFP were detected using a specific anti-YFP antibody. FIG. 4b: the cells expressing the construct 6Myc-OB-RGRP were solubilized with 1% of digitonin or 5% of SDS and the solubilized material was immunoprecipitated with an anti-myc antibody. The precipitates were subjected to separation by SDS-PAGE and the proteins tagged with myc were detected with an anti-myc antibody.
(§4) The total lysates were prepared by washing the cells once with cold PBS (pH 7.4) and denatured by adding loading buffer (30 mmol.L⁻¹ Tris HCl, pH 6.8, 1% glycerol, 5% SDS, 50 mmol.L⁻¹ DTT and 0.05% bromophenol blue). The total lysates or the immunoprecipitates were incubated for 10 minutes at 90° C. and then loaded onto 10% acrylamide gel for separation by electrophoresis (SDS-PAGE).
OB-RGRP was tagged with YFP at its C-terminal tail and expressed in HeLa cells. The proteins were separated by polyacrylamide gel electrophoresis under denaturing conditions (SDS-PAGE) and immunoblotting experiments were carried out with an anti-YFP antibody. […]
For orientation: Immunoblotting shows a protein as a band on a membrane.

The target of series [4] is T3, MT2R-Luc, protein from fusion of the melatonin receptor MT2 with luciferase (UniProt P49286 1-362).
T3 construct: whole, on cells; Control fusion protein; also called melatonin-Luc MT2 receptor
T3 sequence (looked up): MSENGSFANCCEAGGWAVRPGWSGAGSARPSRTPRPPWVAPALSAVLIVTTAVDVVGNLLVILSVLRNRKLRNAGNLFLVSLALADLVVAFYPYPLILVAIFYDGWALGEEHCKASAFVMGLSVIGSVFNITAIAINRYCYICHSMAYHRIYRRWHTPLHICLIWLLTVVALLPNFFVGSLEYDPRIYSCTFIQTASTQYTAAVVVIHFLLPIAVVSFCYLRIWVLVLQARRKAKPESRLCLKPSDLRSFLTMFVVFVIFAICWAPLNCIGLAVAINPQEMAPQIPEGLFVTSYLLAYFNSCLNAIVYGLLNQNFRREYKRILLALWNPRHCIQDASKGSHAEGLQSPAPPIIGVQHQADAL
In words: BRET in living HEK cells, equimolar coexpression. As to the method:
(§5) Study of the oligomerization of OB-RGRP in live HEK cells, by BRET technology. FIG. 6a: the fusion proteins indicated were coexpressed at an equimolar ratio, and BRET measurement experiments were carried out. FIG. 6b: constant amounts of the plasmid OB-RGRP-Luc were coexpressed with increasing amounts of the plasmid OB-RGRP-YFP and BRET measurements were carried out. MT2R-Luc, protein from fusion of the melatonin receptor MT2 with luciferase.
as §1, with “The BRET ratio was defined as the difference in emission at 530 nm/485 nm of the cells cotransfected with the Luc and YFP fusion proteins and the emission at 530 nm/485 nm of the Luc fusion protein transfected alone into the cells.” left out, “1000. […]” for “1000.”

In series [5] the target is B5. In words: BRET in living HEK cells; the signal also rises hyperbolically to saturation with the OB-RGRP-YFP/OB-RGRP-Luc ratio. As to the method:
as §5
as §1, with “The BRET ratio was defined as the difference in emission at 530 nm/485 nm of the cells cotransfected with the Luc and YFP fusion proteins and the emission at 530 nm/485 nm of the Luc fusion protein transfected alone into the cells.” left out, “1000. […]” for “1000.”

Series [6] concerns the target B5. Nature of the series: BRET in living HEK cells, equimolar coexpression. As to the method:
as §5
as §1, with “The BRET ratio was defined as the difference in emission at 530 nm/485 nm of the cells cotransfected with the Luc and YFP fusion proteins and the emission at 530 nm/485 nm of the Luc fusion protein transfected alone into the cells.” left out, “1000. […]” for “1000.”

Series [7] deals with the molecule itself. Nature of the series: SDS-PAGE and anti-YFP immunoblot; self-association. As to the method:
as §3, §4

Series [8] deals with the molecule itself. In words: anti-myc immunoprecipitation, SDS-PAGE and anti-myc blot; self-association.

In the series with OB-Rl, leptin (ligand) had an activation of a luciferase reporter gene under STAT3-response elements, EC50 of 50 pM; an activation of a luciferase reporter gene under STAT5-response elements, EC50 of 50 pM; an increase in the basal activation of the reporter gene for STAT3 of 1.5 fold.

As to B1, the binding result in series [1] was “no binding”. Take B2: the binding result in [2] is “no binding”.

Take B3: the binding result is reported as “binds” in series [3], “no binding” in series [4], “no binding” in series [2] and “binds” in the series with OB-RGRP-Luc [5]. On to B4, for which the binding result (with OB-RGRP-Luc [6]; in [7]) was “binds” throughout. Take B5: the binding result in series [1] was “no binding”.

For the molecule B6, the binding result in series [8] is “binds”.
